Measured values taken from publication PMC8141644 (2021).
Read-outs that look alike come from different tables or passages of the source.

Legend:
[1] = molecular target: T1, EGFR-ECD (UniProt P00533 25-645); test: BLI
[2] = molecular target: T1, EGFR-ECD; test: BLI; remark: listed apart in the source

Kd [1] [nM]	Kd [2] [nM]	Binder
3.7		dFEB4-1 (antibody, V domains shown) VH: AVTLDESGGGLQTPGGALSLVCKASGFTFSSHGMLWVRQAPGKGLEFVAGISTDGSSTSYGAPVKGRATISRDNGQSTVRLQLNNLRAEDTGTYYCAKDAYRCRNCAEDIDAWGHGTEVIVSS VL: ALTQPSSVSANPGETVKITCSGGGYDGSYYYGWYQQKSPGSAPVTVIYDNTNRPSNIPSRFSGSLSGSTNTLTITGVQAEDEAVYFCGGYDRSGGIFGGGTTLTVL
	29.3	FEB4 (antibody, V domains shown) VH: AVTLDESGGGLQTPGGALSLVCKASGFTFSSHGMLWVRQAPGKGLEFVAGISTDGSSTSYGAPVKGRATISRDNGQSTVRLQLNNLRAEDTGTYYCAKDAYRCRNCAEDIDAWGHGTEVIVSS VL: ALTQPSSVSANPGETVKITCSGGYSDDGSYYYYGWFQQKSPGSAPVTVIYDNTNRPSNIPSRFSGSTSGSTSTLTITGVRAEDEAVYYCGSIDTGYAGIFGAGTTLTVL
